± gives the uncertainty stated by the source.
Test: self-splicing fitness, log relative to wild type (ln ratio); higher = more splicing; Tetrahymena group I intron in knt gene, E. coli kanamycin selection, DiMSum; sequences stand for … in CUCUCU…GGAGGGAAAAGUUAUCAGGCAUGCACCUGGUAGCUAGUCUUUAAACCAAUAGAUUGCAUCGGUUUAAAAGGCAAGACCGUCAAAUUGCGGGAAAGGGGUCAACAGCCGUUCAGUACCAAGUCUCAGGGGAAACUUUGAGAUGGCCUUGCAAAGGGUAUGGUAAUAAGCUGACGGACAUGGUCCUAACCACGCAGCCAAGUCCUAAGUCAACAGAUCUUCUGUUGAUAUGGAUGCAGUUCACAGACUAAAUGUCGGUCGGGGAAGAUGUAUUCUUCUCAUAAGAUAUAGUCGGACCUCUCCUUAAUGGGAGCUAGCGGAUGAAGUGAUGCAACACUGGAGCCGCUGGGAACUAAUUUGUAUGCGAAAGUAUAUUGAUUAGUUUUGGAGUACUCGUGGUCG
In short: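 Fitness was computed with DiMSum as the error-weighted combination of replicate fold changes, kanamycin versus none, each normalised to wild type. The library randomised all eight intron nucleotides of the P1ex region, with the intron placed in the knt kanamycin-resistance gene on pET-22b(+) in E. coli BL21(DE3). Six replicate transformations were grown overnight at 37°C or 30°C on LB agar with or without 25 μg/mL kanamycin, plus 100 μg/mL carbenicillin, 50 μM IPTG and 0.2% rhamnose. Pooled colonies were amplicon-sequenced on an Illumina HiSeq 2500.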

| Sequence | self-splicing fitness (ln) (30 °C) | self-splicing fitness (ln) (37 °C) |
| --- | --- | --- |
| AGUUAGCAAUAUUACGUAGG | -4.63 ± 0.32 | – |
| ACAUAGCAAUAUUACGUACG | -2.39 ± 0.12 | -1.87 ± 0.16 |
| UCUGAGCAAUAUUACGCGUC | – | -2.49 ± 0.48 |
| ACGCAGCAAUAUUACGUUCC | -1.71 ± 0.11 | -2.26 ± 0.19 |
| CGGCAGCAAUAUUACGAUCU | -0.274 ± 0.084 | 0.148 ± 0.11 |
| AUCUAGCAAUAUUACGACGU | 0.175 ± 0.057 | 0.669 ± 0.069 |
| AUGCAGCAAUAUUACGCCUU | -0.919 ± 0.072 | -0.304 ± 0.095 |
| CCGGAGCAAUAUUACGCAGG | -3.9 ± 0.27 | -2.67 ± 0.23 |
| UCAAAGCAAUAUUACGUAUU | -3.03 ± 0.14 | -2.13 ± 0.17 |
| GACAAGCAAUAUUACGAUGU | -1.66 ± 0.067 | -1.65 ± 0.11 |
| GUGCAGCAAUAUUACGUUUA | -0.737 ± 0.11 | -0.75 ± 0.12 |
| CGUGAGCAAUAUUACGGUAA | – | -2.41 ± 0.25 |
| UCUGAGCAAUAUUACGGGCA | -3.41 ± 0.33 | -2.49 ± 0.16 |
| UCCCAGCAAUAUUACGGCUG | – | -1.42 ± 0.48 |
| GACUAGCAAUAUUACGAAGC | -2.18 ± 0.18 | -1.55 ± 0.18 |
| AGGUAGCAAUAUUACGCUUC | -3.52 ± 0.036 | -2.83 ± 0.054 |
| GCCGAGCAAUAUUACGCAAA | – | -1.05 ± 0.34 |
| ACUCAGCAAUAUUACGGAUG | -1.36 ± 0.068 | -0.69 ± 0.098 |
| CGUCAGCAAUAUUACGUUUU | -3.25 ± 0.098 | -1.55 ± 0.094 |
| GGCCAGCAAUAUUACGCUCG | -2.5 ± 0.15 | -0.863 ± 0.13 |
| UGAAAGCAAUAUUACGGACG | -0.186 ± 0.084 | 0.54 ± 0.12 |
| UUGCAGCAAUAUUACGAAUG | -1.98 ± 0.086 | -0.713 ± 0.1 |
| GGCUAGCAAUAUUACGGUCU | -2.92 ± 0.44 | -0.649 ± 0.21 |
| CACGAGCAAUAUUACGCAGU | -3.4 ± 0.31 | -3.5 ± 0.37 |
| UCGGAGCAAUAUUACGUGUG | -3.08 ± 0.18 | -1.63 ± 0.1 |

| Sequence | self-splicing fitness (ln) (30 °C) | self-splicing fitness (ln) (37 °C) |
| --- | --- | --- |
| CACCAGCAAUAUUACGUCUC | -2.89 ± 0.13 | -2.38 ± 0.21 |
| UAAGAGCAAUAUUACGUCAG | -3.04 ± 0.25 | -2.33 ± 0.33 |
| CCAAAGCAAUAUUACGCCUA | -4.18 ± 0.33 | -3.12 ± 0.35 |
| CGCUAGCAAUAUUACGAUUG | -1.18 ± 0.1 | 0.0898 ± 0.13 |
| GGGCAGCAAUAUUACGCUCU | -3.55 ± 0.44 | – |
| UAGUAGCAAUAUUACGAGUA | -1.44 ± 0.11 | -0.61 ± 0.084 |
| AUGAAGCAAUAUUACGUUAA | -1.51 ± 0.084 | -0.908 ± 0.1 |
| CAGUAGCAAUAUUACGGGGU | -4.35 ± 0.32 | -2.1 ± 0.22 |
| CGCUAGCAAUAUUACGGUAG | -2.52 ± 0.11 | -2 ± 0.13 |
| AGCAAGCAAUAUUACGUCUC | -2.61 ± 0.29 | – |
| UUGCAGCAAUAUUACGGUCU | -2.05 ± 0.092 | -1.26 ± 0.092 |
| CAGCAGCAAUAUUACGCCGU | -2.74 ± 0.22 | -2.41 ± 0.28 |
| UUCAAGCAAUAUUACGUGCC | -0.891 ± 0.15 | -0.528 ± 0.17 |
| CGACAGCAAUAUUACGAACA | -2.16 ± 0.14 | -0.404 ± 0.11 |
| CGUGAGCAAUAUUACGCUUA | – | -2.18 ± 0.35 |
| CUUCAGCAAUAUUACGUGUC | -3.03 ± 0.13 | -2.3 ± 0.12 |
| GCGGAGCAAUAUUACGCUCA | -0.528 ± 0.3 | -0.54 ± 0.26 |
| GUAAAGCAAUAUUACGUGAC | -2.09 ± 0.076 | -0.885 ± 0.078 |
| AGUGAGCAAUAUUACGUUGG | -4.42 ± 0.36 | -1.98 ± 0.26 |
| GUGAAGCAAUAUUACGGUGG | -1.97 ± 0.098 | -1.78 ± 0.16 |
| UAAGAGCAAUAUUACGAGGA | -3.37 ± 0.29 | -2.25 ± 0.35 |
| UAUUAGCAAUAUUACGGAUA | – | -0.897 ± 0.46 |
| CAUUAGCAAUAUUACGGUUC | -3.48 ± 0.21 | -2.55 ± 0.23 |
| UUCGAGCAAUAUUACGUGGC | -1.49 ± 0.48 | – |
| AAUGAGCAAUAUUACGGUGA | -3.31 ± 0.27 | -2.26 ± 0.42 |

| Sequence | self-splicing fitness (ln) (30 °C) | self-splicing fitness (ln) (37 °C) |
| --- | --- | --- |
| UAGAAGCAAUAUUACGAUCU | -1.11 ± 0.12 | -0.261 ± 0.16 |
| UAGUAGCAAUAUUACGUAAA | -3.01 ± 0.21 | -1.03 ± 0.15 |
| CAGGAGCAAUAUUACGUUAC | -2.43 ± 0.13 | -3.01 ± 0.21 |
| UUCGAGCAAUAUUACGGUGU | – | -3.35 ± 0.42 |
| GUGCAGCAAUAUUACGAAGG | -2.59 ± 0.19 | -1.53 ± 0.23 |
| ACAAAGCAAUAUUACGCCCA | -1.24 ± 0.11 | -0.225 ± 0.13 |
| GCAUAGCAAUAUUACGGCGU | -0.347 ± 0.091 | 0.0454 ± 0.089 |
| AGAGAGCAAUAUUACGCUCA | -2.44 ± 0.27 | -1.11 ± 0.21 |
| CCGCAGCAAUAUUACGCCUG | -1.69 ± 0.13 | -1.22 ± 0.16 |
| CGCUAGCAAUAUUACGAUAG | -1.9 ± 0.065 | -0.433 ± 0.085 |
| GUAUAGCAAUAUUACGGUGA | -2.53 ± 0.25 | -0.645 ± 0.18 |
| GCCCAGCAAUAUUACGCUCU | 0.00415 ± 0.05 | 0.138 ± 0.066 |
| ACGGAGCAAUAUUACGAUAU | -2.48 ± 0.21 | -2.12 ± 0.23 |
| AUCAAGCAAUAUUACGACAA | -1 ± 0.12 | -0.427 ± 0.12 |
| UCGAAGCAAUAUUACGUAAG | -1.85 ± 0.13 | -0.0359 ± 0.13 |
| GAAGAGCAAUAUUACGGUAA | -2.16 ± 0.29 | -1.01 ± 0.24 |
| UUAAAGCAAUAUUACGGUUC | -3.46 ± 0.19 | -1.81 ± 0.18 |
| ACAUAGCAAUAUUACGAAAA | -2.4 ± 0.25 | -3.31 ± 0.3 |
| UAUUAGCAAUAUUACGCCCG | 0.243 ± 0.36 | 1.09 ± 0.36 |
| UGAUAGCAAUAUUACGGUUA | -0.585 ± 0.067 | -0.467 ± 0.085 |
| AGCGAGCAAUAUUACGUUGU | -3.39 ± 0.13 | -3.31 ± 0.15 |
| UUUAAGCAAUAUUACGUCAG | -0.728 ± 0.12 | -0.571 ± 0.12 |
| CAGGAGCAAUAUUACGUGCG | -1.56 ± 0.079 | -0.807 ± 0.088 |
| AGAGAGCAAUAUUACGUUUA | – | -2.08 ± 0.33 |
| UCCUAGCAAUAUUACGGGAG | -2.27 ± 0.25 | -2.37 ± 0.35 |

| Sequence | self-splicing fitness (ln) (30 °C) | self-splicing fitness (ln) (37 °C) |
| --- | --- | --- |
| GUGAAGCAAUAUUACGGACU | -0.0214 ± 0.15 | -0.194 ± 0.19 |
| CUGUAGCAAUAUUACGACAA | -0.568 ± 0.11 | 0.0313 ± 0.11 |
| UGUUAGCAAUAUUACGCAGA | -0.741 ± 0.46 | -0.752 ± 0.3 |
| CGUCAGCAAUAUUACGGGAU | -4.7 ± 0.39 | -2.66 ± 0.2 |
| GAUAAGCAAUAUUACGUUAC | -2.69 ± 0.2 | -2.09 ± 0.35 |
| GAGGAGCAAUAUUACGGCAA | -2.41 ± 0.21 | -0.766 ± 0.26 |
| AUAAAGCAAUAUUACGGAUC | -1.55 ± 0.13 | -0.273 ± 0.15 |
| GAGAAGCAAUAUUACGUGCG | -1.71 ± 0.093 | -1.02 ± 0.1 |
| AAGCAGCAAUAUUACGAAAC | -3.7 ± 0.4 | -1.8 ± 0.38 |
| AAGGAGCAAUAUUACGGGAU | -4.25 ± 0.29 | -3.56 ± 0.36 |
| UCCGAGCAAUAUUACGGACU | -3.56 ± 0.21 | -2.02 ± 0.14 |
| UACCAGCAAUAUUACGACGG | -0.833 ± 0.06 | -0.237 ± 0.094 |
| AUCCAGCAAUAUUACGCCCA | -0.76 ± 0.14 | -0.212 ± 0.15 |
| AUGCAGCAAUAUUACGUGGU | -2.7 ± 0.095 | -2.18 ± 0.1 |
| GCAAAGCAAUAUUACGUACC | -0.781 ± 0.081 | -0.64 ± 0.12 |
| AUGAAGCAAUAUUACGUUAU | -0.343 ± 0.071 | -0.555 ± 0.096 |
| UUCUAGCAAUAUUACGGUGC | -2.46 ± 0.4 | -2.96 ± 0.38 |
| GAGUAGCAAUAUUACGCCUC | -2.22 ± 0.24 | -3.01 ± 0.47 |
| GAGGAGCAAUAUUACGCUAU | -2.8 ± 0.27 | -2.05 ± 0.45 |
| AGGAAGCAAUAUUACGAAAA | – | -2.42 ± 0.41 |
| CGCAAGCAAUAUUACGCGUG | -3.08 ± 0.12 | -1.99 ± 0.13 |
| CAUGAGCAAUAUUACGUAUG | -2.65 ± 0.21 | -2.65 ± 0.22 |
| GCUAAGCAAUAUUACGGGGC | -4.76 ± 0.38 | -2.87 ± 0.28 |
| CUACAGCAAUAUUACGGUCC | -2.72 ± 0.18 | -2.15 ± 0.24 |

— the supplement of paper PMC7877785
